Source: patent US8017829

Test system: Cre recombinase (bacteriophage P1?)
Assay: cell_activity
Conditions: rice plant crosses; excision confirmed by Southern blot

## lox site
  activity (% GUS+ progeny (19/75)): 25.3
